Data reported in paper doi:10.64898/2025.12.18.694329.

Columns and labels:
[1] = target: SACSIN HEPN domain (recombinant, GST-tag removed) (human); experiment: SEC
[2] = target: SACSIN HEPN domain (recombinant, GST-tag removed) (human); experiment: native gel or EMSA

Which stoichiometry N [1] does the source give for “SACSIN HEPN domain (recombinant, GST-tag removed) (domain or fragment)” here?
Its stoichiometry N is 2.

And the stoichiometry N [2]?
Its stoichiometry N is 2.
